In publication PMC6989145 one finds stoichiometry N and subunit association rate (subunits·s^−1) data, which are given here for one substance.

The target of test [1] is murine perforin-2 (mPFN2) ectodomain (mouse) (UniProt A1L314). In words: cryo-EM structure; pore: pre-pore sample lowered to pH 3.6 to 4.0 with 0.056% Cymal-6, room temperature, 30 min; C16 symmetry.
For test [2] the target is unchanged. In words: high-speed atomic force microscopy; PFN2 monomers (0.043 mg/ml) incubated 5 min directly on freshly cleaved mica; 20 mM Hepes-NaOH pH 7.5, 200 mM NaCl, 2 mM CaCl2.
For test [3] the target is unchanged. The test can be described thus: cryo-EM structure; pre-pore oligomers formed in solution: 0.5 mg/ml in 50 mM citric acid buffer pH 5.5, 150 mM NaCl, 37°C overnight; purified by SEC (Superose 6); 0.01% Tween 20 added; C16 symmetry.
Test [4] shares this target. In words: high-speed atomic force microscopy; PFN2 monomers (0.043 mg/ml) incubated 5 min on a mica-supported E. coli lipid bilayer; 20 mM Hepes-NaOH pH 7.5, 200 mM NaCl, 2 mM CaCl2; subunit association and dissociation at incomplete rings, frames of 500 ms.

As a reminder, the stoichiometry N is the number of molecules, sites or subunits per partner or assembly.

For “murine perforin-2 (mPFN2) ectodomain (from UniProt A1L314 20-652) (domain or fragment)”, the stoichiometry N in test [1] was 16; in test [2], 1 to 16 subunits; in test [3], 16 subunits. For the same substance, the subunit association rate (subunits·s^−1) in test [4] is 2.4.
